# Measured values taken from patent publication US20190062422A1 (MorphoSys, published 2019).
# Numbering of substitutions follows the chain as printed.
# B1: MOR12754 (antibody, V domains shown)
# VH: EVQLLESGGGLVQPGGSLRLSCAASGFTFSDYAMTWVRQAPGKGLEWVSVISYDGSLTYYADSVKGRFTISRDNSKNTLYLQMNSLRAEDTAVYYCARDPGVWWLSYLDYWGQGTLVTVSS
# VL: DIQMTQSPSSLSASVGDRVTITCRASQDIISYLAWYQQKPGKAPKLLIYGASNLQGGVPSRFSGSGSGTDFTLTISSLQPEDFAVYYCQQYMIAPPNTFGQGTKVEIKR
# notes: Tested as human-mouse chimeric IgG2a (human variable, mouse constant regions); Potential N-linked glycosylation sites were removed by site-directed mutagenesis
# B2: MOR12744 (antibody, V domains shown)
# VH: QVQLVQSGAEVKKPGASVKVSCKASGYTFTSNFIHWVRQAPGQGLEWMGWISPYNGDTNYAQKFQGRVTMTRDTSISTAYMELSRLRSEDTAVYYCARESVYYGSDYGYNGMDIWGQGTLVTVSS
# VL: DIELTQPPSVSVSPGQTASITCSGDNLGEEYVSWYQQKPGQAPVLVIYDDTKRPSGIPERFSGSNSGNTATLTISGTQAEDEADYYCASWAFYSSQVFGGGTKLTVLG
# notes: as for B1
# B3: MOR12746 (antibody, V domains shown)
# VH: B2 VH
# VL: B2 VL with A88S, A91T, F92H, Y93F, S95N, Q96I
# notes: as for B1
# B4: MOR12745 (antibody, V domains shown)
# VH: B2 VH
# VL: B2 VL with A88S, S89A, F92T, Y93W, S95V, Q96A
# notes: as for B1
# B5: MOR12742 (antibody, V domains shown)
# VH: QVQLVQSGAEVKKPGSSVKVSCKASGGTFSSYGISWVRQAPGQGLEWMGRIIPIFGTAYYAQKFQGRVTITADESTSTAYMELSSLRSEDTAVYYCARDMRYHDYWPYYYGSDQFDVWGQGTLVTVSS
# VL: DIVLTQPPSVSGAPGQRVTISCSGSSSNIGSDIVSWYQQLPGTAPKLLIYYNNLRPSGVPDRFSGSKSGTSASLAITGLQAEDEADYYCQSWDWASLAMVFGGGTKLTVLG
# notes: as for B1
# B6: MOR12753 (antibody, V domains shown)
# VH: QVQLQQSGPGLVKPSQTLSLTCAISGDSVSSSSAAWNWIRQSPSRGLEWLGRIEYRSKWYNDYAVSVKSRITINPDTSKNQFSLQLNSVTPEDTAVYYCAREMYYYSGYGVFDVWGQGTLVTVSS
# VL: DIELTQPPSVSVSPGQTASITCSGDALGGEYVHWYQQKPGQAPVLVIYDDDKRPSGIPERFSGSNSGNTATLTISGTQAEDEADYYCSSFDTWTSYVFGGGTKLTVLG
# notes: as for B1
# B7: mouse IL17C (ligand, UniProt Q8K4C5 17-194, looked up)
# chain: DPPSWGKPRSHRTLRCYSAEELSHGQAPPHLLTRSARWEQALPVALVASLEATGHRRQHEGPLAGTQCPVLRPEEVLEADTHERSISPWRYRIDTDENRYPQKLAVAECLCRGCINAKTGRETAALNSVQLLQSLLVLRRQPCSRDGTADPTPGSFAFHTEFIRVPVGCTCVLPRSTQ
# modifications: biotinylated in the receptor interaction, inhibition and serum stability assays (sites not given)
# notes: Bought recombinant protein; About 22 kDa reduced and about 40 kDa non-reduced on SDS-PAGE; Used plain (coated, ELISA) or biotinylated; also called biotinylated mouse IL17C; biotin-IL17C
# Target: B7
# Assay: ELISA on biotin-IL17C captured on avidin: chimeric IgG2a incubated 24 h at 37°C in mouse serum against freshly diluted IgG2a
# Description: 96 well Maxisorp plates (Nunc; #442404) were coated with avidin at a concentration of 1 μg/ml in PBS overnight at 4° C. The next day, anti-IL17 chimeric IgG2a were incubated in mouse serum for 24 h at 37° C. at a final concentration 100 μg/mL. After the incubation step the antibodies were diluted 1:100 in LowCross buffer (Candor Bioscience; #100500). As a reference the same set of antibodies were freshly diluted in LowCross buffer+1% mouse serum and incubated for 30 min at RT. Avidin coated plates were incubated with blocking buffer (Superblock blocking buffer from Pierce, #37515) and subsequently 100 μL of 0.1 μg/mL biotin-IL17C in LowCross buffer was added to blocked wells. After a washing step a serial dilution of the serum-incubated and freshly diluted IgGs was added. Binding of IgGs was detected by anti-mouse-IgG2a POD conjugated detection antibody (diluted 1:5000 in LowCross buffer) using TMB One Component HRP as substrate. The reaction was stopped by adding 1M HCl and absorbance was measured at 450 nm.
row,Binder,Coefficient of variation (Mouse Serum Stability Assay 24h/37°C)
1,B1,17%
2,B2,11.8%
3,B3,7.36%
4,B4,15.9%

# Target: T1, mouse IL-17B (mouse, UniProt Q9QXT6 23-180, limits assumed)
# T1 sequence (looked up): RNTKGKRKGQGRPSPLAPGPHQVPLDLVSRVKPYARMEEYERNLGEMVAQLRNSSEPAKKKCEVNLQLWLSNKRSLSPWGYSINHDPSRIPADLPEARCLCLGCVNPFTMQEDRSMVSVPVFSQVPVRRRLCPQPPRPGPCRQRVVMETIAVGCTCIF
# Assay: ELISA, purified chimeric human/mouse IgG2a on msIL-17B
row,Binder,binding result
1,B1,no binding
2,B2,no binding
3,B3,no binding
4,B4,no binding

# Target: B7
# Assay: ELISA, purified chimeric human/mouse IgG2a titrated on mouse IL17C, n=1-2
# Description: All purified chimeric human-mouse chimeric IgG2a antibodies were titrated on mouse IL17C for EC₅₀ determination in ELISA starting with a concentration of 100 nM. EC₅₀ values on mouse IL17C were determined in 1 to 3 independent experiments.
row,Binder,EC50
1,B1,0.4 nM
2,B2,0.28 nM
3,B3,0.38 nM
4,B4,0.4 nM

# Target: T2, human IL17C (human, UniProt Q9P0M4 19-197)
# T2 sequence: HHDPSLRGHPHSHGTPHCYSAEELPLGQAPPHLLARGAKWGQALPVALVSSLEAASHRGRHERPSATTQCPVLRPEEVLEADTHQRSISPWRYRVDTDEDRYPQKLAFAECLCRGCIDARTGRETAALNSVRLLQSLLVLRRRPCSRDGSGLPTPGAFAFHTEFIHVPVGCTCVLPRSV
# Assay: ELISA, purified chimeric IgG2a
row,Binder,binding result
1,B5,no binding
2,B6,no binding

# Target: T1, mouse IL-17B
# Assay: ELISA, purified chimeric IgG2a
row,Binder,binding result
1,B5,no binding
2,B6,no binding

# Target: B7
# Assay: mIL17C - mIL-17RE inhibition assay (MSD): human/mouse IgG2a pre-incubated with biotinylated mouse IL17C, binding to coated mouse IL17RE/Fc detected by Streptavidin-ECL
# Description: To determine inhibitory activity of purified anti-IL17C human-mouse chimeric IgG2a in a mIL-17 RE interaction assay, Maxisorp™ 384 well MSD plates were coated with 30 μL mouse IL17RE/Fc at 75 ng/mL in PBS at 4° C. overnight. The next day 25 μL of a serial antibody dilution (concentrations from 0.001 to 100 nM) were pre-incubated for 30 min at RT with an equal volume of biotinylated mouse IL17C at 0.125 nM. After blocking of plates for 1 h with 2.5% BSA in PBST, preformed antibody-ligand complexes were added for 1 h to coated IL17RE/Fc and receptor binding was detected via Streptavidin-ECL using MSD Sector Imager.
# To characterize the antibodies in human/mouse IgG2a format in more detail, for each candidate IC₅₀ values were determined in the IL-17 receptor E inhibition assay as described herein above in up to 4 independent experiments.
row,Binder,IC50
1,B1,8.44 nM
2,B2,0.012 nM
3,B3,0.023 nM
4,B4,0.013 nM

# Target: B7
# Assay: solution equilibrium titration (SET), ECL based, monovalent Fab fragment (Fab_FH format)
# Description: Monovalent affinities of anti-IL17C antibodies were determined by solution equilibrium titration (SET) using Fab fragments. Affinity determination in solution was basically performed as described in the literature (Friquet et al., (1985) J. Immunol. Meth. 77: 305-19). In order to improve the sensitivity and accuracy of the SET method, it was transferred from classical ELISA to ECL based technology (Haenel et al. (2005) Anal Biochem. 339.1: 182-84). Binders were expressed and purified in Fab_FH format.
row,Binder,Kd
1,B1,4.1 nM
2,B2,0.053 nM
3,B3,0.056 nM
4,B4,0.075 nM
5,B6,0.062 nM

# Target: T2, human IL17C
# Assay: ELISA, purified chimeric human/mouse IgG2a on huIL-17C
row,Binder,binding result
1,B1,no binding
2,B2,no binding
3,B3,no binding
4,B4,no binding

# Target: T3, mouse IL-17RB (mouse, UniProt Q9JIP3 18-286)
# T3 construct: extracellular domain; also called IL17 receptor B
# T3 sequence (looked up): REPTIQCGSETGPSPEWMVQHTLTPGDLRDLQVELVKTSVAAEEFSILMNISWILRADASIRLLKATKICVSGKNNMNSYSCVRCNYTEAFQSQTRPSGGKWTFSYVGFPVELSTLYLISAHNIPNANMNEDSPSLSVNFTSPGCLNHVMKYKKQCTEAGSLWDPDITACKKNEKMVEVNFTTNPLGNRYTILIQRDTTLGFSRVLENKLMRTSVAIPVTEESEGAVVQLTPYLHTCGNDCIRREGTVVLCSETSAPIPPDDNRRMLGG
# Assay: MSD receptor interaction assay, coated receptor, biotinylated mouse IL17C, streptavidin detection
# Description: To test binding of mouse IL17 to its putative receptor, IL17 receptor E an interaction assay was set up. The assay setup is depicted in FIG. 1A. In brief, IL17 receptors B and E were coated on a Multi-array® 384-well plate Standard plate (Meso Scale Discovery; #L21XA-4) and biotinylated mouse IL17C was added. Binding of mouse IL17C to its receptor was measured via binding of Streptavidin in a MSD Sector Imager 6000 (Meso Scale Discovery, Gaithersburg, Md., USA).
row,Binder,binding result
1,B7,no binding
